What was measured:
Assay in all cases: holdup assay
Parameters in all cases: key: below the threshold = too weak to quantify, mostly under pKd 3.1 to 4
Conditions in all cases: plain residues with an end cap or a label only (N-terminal biotin on a linker: ado-ado)
[1] = target: T1, APBA2_1, Q99767
T1 sequence (Q99767 563-664, limits assumed, looked up): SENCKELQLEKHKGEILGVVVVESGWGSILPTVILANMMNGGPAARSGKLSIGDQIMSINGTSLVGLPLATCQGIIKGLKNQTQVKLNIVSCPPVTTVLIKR

[2] = target: T2, ARHGEF11, O15085
T2 sequence (O15085 42-136, limits assumed, looked up): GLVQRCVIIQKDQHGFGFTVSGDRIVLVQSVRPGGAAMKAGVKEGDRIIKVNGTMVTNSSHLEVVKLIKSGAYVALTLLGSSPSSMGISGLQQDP

[3] = target: ARHGEF12, Q9NZN5-2
Sequence of ARHGEF12, Q9NZN5-2 (Q9NZN5 other isoform, or with tags, fused parts or gaps): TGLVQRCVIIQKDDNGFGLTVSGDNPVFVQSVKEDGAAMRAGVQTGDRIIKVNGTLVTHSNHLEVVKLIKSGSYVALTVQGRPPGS

[4] = target: CASK, O14936
Sequence of CASK, O14936 (O14936 487-570): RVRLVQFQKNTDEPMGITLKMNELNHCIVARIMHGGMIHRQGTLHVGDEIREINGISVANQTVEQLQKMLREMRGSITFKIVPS

[5] = target: DLG2_2, Q15700
[6] = target: DLG2_3, Q15700
[7] = target: GRID2IP_1, A4D2P6
Sequence of GRID2IP_1, A4D2P6 (A4D2P6 1-87): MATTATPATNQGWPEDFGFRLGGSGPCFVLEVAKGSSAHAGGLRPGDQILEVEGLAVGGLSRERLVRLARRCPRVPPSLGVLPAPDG

[8] = target: T3, GRIP1_2, Q9Y3R0
T3 sequence (Q9Y3R0 145-248, limits assumed, looked up): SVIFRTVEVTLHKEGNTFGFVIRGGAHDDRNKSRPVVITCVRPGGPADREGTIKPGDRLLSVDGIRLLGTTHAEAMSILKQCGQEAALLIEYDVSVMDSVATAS

[9] = target: T4, GRIP1_3, Q9Y3R0
T4 sequence (Q9Y3R0 247-346, limits assumed, looked up): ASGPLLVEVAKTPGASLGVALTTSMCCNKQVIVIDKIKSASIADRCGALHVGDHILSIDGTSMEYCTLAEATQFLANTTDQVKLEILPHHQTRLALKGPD

[10] = target: GRIP2_6, Q9C0E4
Sequence of GRIP2_6, Q9C0E4 (Q9C0E4 648-740): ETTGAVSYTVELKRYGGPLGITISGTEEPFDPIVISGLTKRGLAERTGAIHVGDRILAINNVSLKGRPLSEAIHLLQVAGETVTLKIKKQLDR

[11] = target: HTRA1, Q92743
Sequence of HTRA1, Q92743 (Q92743 360-477): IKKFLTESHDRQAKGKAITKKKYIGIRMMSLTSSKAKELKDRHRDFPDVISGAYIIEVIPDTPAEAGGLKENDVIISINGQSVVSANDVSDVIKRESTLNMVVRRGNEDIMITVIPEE

[12] = target: IL16_4, Q14005
Sequence of IL16_4, Q14005 (Q14005 1229-1329): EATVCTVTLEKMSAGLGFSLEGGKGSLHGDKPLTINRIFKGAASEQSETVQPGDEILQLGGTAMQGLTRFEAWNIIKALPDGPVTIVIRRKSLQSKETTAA

[13] = target: Inadl_10, Q8NI35
Sequence of Inadl_10, Q8NI35 (Q8NI35 1673-1763): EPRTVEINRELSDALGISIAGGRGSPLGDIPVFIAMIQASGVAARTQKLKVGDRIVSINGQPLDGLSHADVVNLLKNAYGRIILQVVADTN

[14] = target: Inadl_2, Q8NI35
Sequence of Inadl_2, Q8NI35 (Q8NI35 238-335): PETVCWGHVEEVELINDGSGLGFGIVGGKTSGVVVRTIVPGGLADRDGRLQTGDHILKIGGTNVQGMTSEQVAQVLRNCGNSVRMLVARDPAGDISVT

[15] = target: T5, LIN7C, Q9NUP9
T5 sequence (Q9NUP9 88-185, limits assumed, looked up): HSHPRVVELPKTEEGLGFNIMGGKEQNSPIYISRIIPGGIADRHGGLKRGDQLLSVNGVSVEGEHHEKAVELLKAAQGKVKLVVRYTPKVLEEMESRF

[16] = target: LNX1_2, Q8TBB1
Sequence of LNX1_2, Q8TBB1 (Q8TBB1 371-470): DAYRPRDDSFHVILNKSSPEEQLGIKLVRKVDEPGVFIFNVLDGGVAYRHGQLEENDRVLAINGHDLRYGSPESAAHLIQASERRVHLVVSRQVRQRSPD

[17] = target: MAGI1_1, Q96QZ7
Sequence of MAGI1_1, Q96QZ7 (Q96QZ7 1-106): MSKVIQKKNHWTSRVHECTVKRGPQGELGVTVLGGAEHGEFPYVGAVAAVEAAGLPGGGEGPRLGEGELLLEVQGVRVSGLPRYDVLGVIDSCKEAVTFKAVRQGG

[18] = target: T6, NHERF3_1, Q5T2W1
T6 sequence (Q5T2W1 4-100, limits assumed, looked up): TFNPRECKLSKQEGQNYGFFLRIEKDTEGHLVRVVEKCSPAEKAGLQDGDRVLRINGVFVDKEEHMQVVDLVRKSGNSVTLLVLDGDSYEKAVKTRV

[19] = target: T7, NHERF3_3, Q5T2W1
T7 sequence (Q5T2W1 238-333, limits assumed, looked up): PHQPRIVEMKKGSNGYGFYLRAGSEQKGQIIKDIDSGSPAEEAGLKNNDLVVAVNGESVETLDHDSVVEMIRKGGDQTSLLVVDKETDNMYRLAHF

[20] = target: PDZRN4_1, Q6ZMN7
Sequence of PDZRN4_1, Q6ZMN7 (Q6ZMN7 213-318): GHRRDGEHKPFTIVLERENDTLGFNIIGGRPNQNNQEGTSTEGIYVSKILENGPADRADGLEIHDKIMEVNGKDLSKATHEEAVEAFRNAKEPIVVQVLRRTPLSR

[21] = target: T8, RADIL, Q96JH8
T8 sequence (Q96JH8 971-1071, limits assumed, looked up): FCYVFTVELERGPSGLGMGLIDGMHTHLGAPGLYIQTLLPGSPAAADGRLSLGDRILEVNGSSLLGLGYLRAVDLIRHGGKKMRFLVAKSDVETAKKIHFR

[22] = target: T9, RHPN1, Q8TCX5
T9 sequence (Q8TCX5 508-602, limits assumed, looked up): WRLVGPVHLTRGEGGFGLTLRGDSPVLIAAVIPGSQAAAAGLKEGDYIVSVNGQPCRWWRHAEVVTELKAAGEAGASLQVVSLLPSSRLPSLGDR

[23] = target: T10, SNTG1, Q9NSN8
T10 sequence (Q9NSN8 52-150, limits assumed, looked up): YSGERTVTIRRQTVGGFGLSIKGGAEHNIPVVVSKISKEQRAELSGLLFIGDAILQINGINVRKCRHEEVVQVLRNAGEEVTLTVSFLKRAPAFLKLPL

[24] = target: T11, SYNJ2BP, P57105
T11 sequence (P57105 8-110, limits assumed, looked up): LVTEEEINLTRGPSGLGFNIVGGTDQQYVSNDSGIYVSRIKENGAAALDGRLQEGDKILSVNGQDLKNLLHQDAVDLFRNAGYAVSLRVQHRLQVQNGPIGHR

[25] = target: TJP1_2, Q07157
Sequence of TJP1_2, Q07157 (Q07157 181-274): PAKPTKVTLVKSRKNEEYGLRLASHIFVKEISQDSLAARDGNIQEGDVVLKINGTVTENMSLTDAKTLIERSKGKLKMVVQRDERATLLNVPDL

[26] = target: T12, TJP3_3, O95049
T12 sequence (O95049 375-456, limits assumed, looked up): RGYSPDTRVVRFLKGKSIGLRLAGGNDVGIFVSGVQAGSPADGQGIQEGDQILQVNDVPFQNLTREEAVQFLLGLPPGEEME

## PDSNPEESSV [SEMA4C, Q9C0C4]
[1]
  pKd: below the threshold
[2]
  pKd: 3.83
[3]
  pKd: 3.71
[4]
  pKd: below the threshold
[5]
  pKd: 3.85
[6]
  pKd: below the threshold
[7]
  pKd: below the threshold
[8]
  pKd: below the threshold
[9]
  pKd: below the threshold
[10]
  pKd: below the threshold
[11]
  pKd: 3.85
[12]
  pKd: below the threshold
[13]
  pKd: below the threshold
[14]
  pKd: below the threshold
[15]
  pKd: 3.56
[16]
  pKd: below the threshold
[17]
  pKd: 3.57
[18]
  pKd: 3.56
[19]
  pKd: below the threshold
[20]
  pKd: 4.43
[21]
  pKd: below the threshold
[22]
  pKd: 4.7
[23]
  pKd: 4.65
[24]
  pKd: 5.09
[25]
  pKd: below the threshold
[26]
  pKd: below the threshold

## SSGSTSSSRI [ADGRG1, Q9Y653]
[1]
  pKd: below the threshold
[2]
  pKd: 3.93
[3]
  pKd: 4.04
[4]
  pKd: below the threshold
[5]
  pKd: 3.49
[6]
  pKd: 3.73
[7]
  pKd: below the threshold
[8]
  pKd: below the threshold
[9]
  pKd: below the threshold
[10]
  pKd: below the threshold
[11]
  pKd: below the threshold
[12]
  pKd: 3.63
[13]
  pKd: below the threshold
[14]
  pKd: below the threshold
[15]
  pKd: below the threshold
[16]
  pKd: below the threshold
[17]
  pKd: below the threshold
[18]
  pKd: 4.48
[19]
  pKd: below the threshold
[20]
  pKd: below the threshold
[21]
  pKd: below the threshold
[22]
  pKd: 3.93
[23]
  pKd: below the threshold
[24]
  pKd: below the threshold
[25]
  pKd: below the threshold
[26]
  pKd: below the threshold

## ASGLDKRDYV [CLDN9, O95484]
[1]
  pKd: below the threshold
[2]
  pKd: below the threshold
[3]
  pKd: below the threshold
[4]
  pKd: below the threshold
[5]
  pKd: below the threshold
[6]
  pKd: below the threshold
[7]
  pKd: below the threshold
[8]
  pKd: below the threshold
[9]
  pKd: below the threshold
[10]
  pKd: below the threshold
[11]
  pKd: 3.84
[12]
  pKd: below the threshold
[13]
  pKd: below the threshold
[14]
  pKd: below the threshold
[15]
  pKd: 4
[16]
  pKd: below the threshold
[17]
  pKd: below the threshold
[18]
  pKd: 4.46
[19]
  pKd: below the threshold
[20]
  pKd: below the threshold
[21]
  pKd: 4.08
[22]
  pKd: below the threshold
[23]
  pKd: below the threshold
[24]
  pKd: below the threshold
[25]
  pKd: below the threshold
[26]
  pKd: 3.65

## NPETRDETQL [KCNT1, Q5JUK3]
[1]
  pKd: below the threshold
[2]
  pKd: 4.01
[3]
  pKd: 4.36
[4]
  pKd: below the threshold
[5]
  pKd: below the threshold
[6]
  pKd: below the threshold
[7]
  pKd: below the threshold
[8]
  pKd: below the threshold
[9]
  pKd: below the threshold
[10]
  pKd: below the threshold
[11]
  pKd: below the threshold
[12]
  pKd: below the threshold
[13]
  pKd: below the threshold
[14]
  pKd: below the threshold
[15]
  pKd: 3.68
[16]
  pKd: below the threshold
[17]
  pKd: below the threshold
[18]
  pKd: 5.27
[19]
  pKd: below the threshold
[20]
  pKd: 4.69
[21]
  pKd: below the threshold
[22]
  pKd: 4.43
[23]
  pKd: below the threshold
[24]
  pKd: 4.43
[25]
  pKd: below the threshold
[26]
  pKd: below the threshold

— publication PMC9482650, “Quantitative fragmentomics allow affinity mapping of interactomes” (Nature Communications, 2022)
